Bridge positions count the residues as written; N and C are the ends. Square brackets hold non-standard residues; d marks the D form. d2Nal = N[C@H](Cc1ccc2ccccc2c1)C(=O)O; Bta = N[C@@H](Cc1csc2ccccc12)C(=O)O; βAla = NCCC(=O)O
B1: Ac-c(Cys-Glu-His-D-2-Nal-Arg-Bal-Ala-Cys)-Pro-Pro-Arg-Asp-β-[…]NH2 (peptide)
peptide: Ac-CEH[d2Nal]R[Bta]ACPPRD[βAla]RRRRRRQRRR-NH2
modifications: disulfide 1-8
SMILES: CC(=O)N[C@H]1CSSC[C@@H](C(=O)N2CCC[C@H]2C(=O)N2CCC[C@H]2C(=O)N[C@@H](CCCNC(=N)N)C(=O)N[C@@H](CC(=O)O)C(=O)NCCC(=O)N[C@@H](CCCNC(=N)N)C(=O)N[C@@H](CCCNC(=N)N)C(=O)N[C@@H](CCCNC(=N)N)C(=O)N[C@@H](CCCNC(=N)N)C(=O)N[C@@H](CCCNC(=N)N)C(=O)N[C@@H](CCCNC(=N)N)C(=O)N[C@@H](CCC(N)=O)C(=O)N[C@@H](CCCNC(=N)N)C(=O)N[C@@H](CCCNC(=N)N)C(=O)N[C@@H](CCCNC(=N)N)C(N)=O)NC(=O)[C@H](C)NC(=O)[C@H](Cc2csc3ccccc23)NC(=O)[C@H](CCCNC(=N)N)NC(=O)[C@@H](Cc2ccc3ccccc3c2)NC(=O)[C@H](Cc2c[nH]cn2)NC(=O)[C@H](CCC(=O)O)NC1=O
B2: Ac-c(Cys-Glu-His-D-2-Nal-Arg-Bal-Ala-Cys)-Pro-Pro-Lys-Asp-β-[…]NH2 (peptide)
peptide: Ac-CEH[d2Nal]R[Bta]ACPPKD[βAla]GRRKRRQRRR-NH2
modifications: disulfide 1-8
SMILES: CC(=O)N[C@H]1CSSC[C@@H](C(=O)N2CCC[C@H]2C(=O)N2CCC[C@H]2C(=O)N[C@@H](CCCCN)C(=O)N[C@@H](CC(=O)O)C(=O)NCCC(=O)NCC(=O)N[C@@H](CCCNC(=N)N)C(=O)N[C@@H](CCCNC(=N)N)C(=O)N[C@@H](CCCCN)C(=O)N[C@@H](CCCNC(=N)N)C(=O)N[C@@H](CCCNC(=N)N)C(=O)N[C@@H](CCC(N)=O)C(=O)N[C@@H](CCCNC(=N)N)C(=O)N[C@@H](CCCNC(=N)N)C(=O)N[C@@H](CCCNC(=N)N)C(N)=O)NC(=O)[C@H](C)NC(=O)[C@H](Cc2csc3ccccc23)NC(=O)[C@H](CCCNC(=N)N)NC(=O)[C@@H](Cc2ccc3ccccc3c2)NC(=O)[C@H](Cc2c[nH]cn2)NC(=O)[C@H](CCC(=O)O)NC1=O
B3: Ac-c(Cys-Glu-His-D-2-Nal-Arg-Bal-Ala-Cys)-Pro-Pro-Lys-Asp-β-[…]NH2 (peptide)
peptide: Ac-CEH[d2Nal]R[Bta]ACPPKD[βAla]GRKRRRQRRR-NH2
modifications: disulfide 1-8
SMILES: CC(=O)N[C@H]1CSSC[C@@H](C(=O)N2CCC[C@H]2C(=O)N2CCC[C@H]2C(=O)N[C@@H](CCCCN)C(=O)N[C@@H](CC(=O)O)C(=O)NCCC(=O)NCC(=O)N[C@@H](CCCNC(=N)N)C(=O)N[C@@H](CCCCN)C(=O)N[C@@H](CCCNC(=N)N)C(=O)N[C@@H](CCCNC(=N)N)C(=O)N[C@@H](CCCNC(=N)N)C(=O)N[C@@H](CCC(N)=O)C(=O)N[C@@H](CCCNC(=N)N)C(=O)N[C@@H](CCCNC(=N)N)C(=O)N[C@@H](CCCNC(=N)N)C(N)=O)NC(=O)[C@H](C)NC(=O)[C@H](Cc2csc3ccccc23)NC(=O)[C@H](CCCNC(=N)N)NC(=O)[C@@H](Cc2ccc3ccccc3c2)NC(=O)[C@H](Cc2c[nH]cn2)NC(=O)[C@H](CCC(=O)O)NC1=O

Each binder was assayed against T1, human melanocortin receptor subtype 4 (hMC4-R) (human, UniProt P32245 1-332) (assay: [125I]-NDP-α-MSH competition, membranes).
T1 construct: whole, on cells; membranes of CHO-K1 cells
T1 sequence (P32245 whole entry): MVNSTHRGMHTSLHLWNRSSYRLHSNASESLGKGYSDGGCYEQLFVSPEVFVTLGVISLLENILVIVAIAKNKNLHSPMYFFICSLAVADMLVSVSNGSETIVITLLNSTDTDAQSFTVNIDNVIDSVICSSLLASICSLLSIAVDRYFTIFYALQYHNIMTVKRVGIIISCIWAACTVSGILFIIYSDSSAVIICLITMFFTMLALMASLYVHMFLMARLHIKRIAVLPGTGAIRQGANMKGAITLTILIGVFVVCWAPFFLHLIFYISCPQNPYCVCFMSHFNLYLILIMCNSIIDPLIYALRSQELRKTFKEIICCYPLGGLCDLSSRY
B1 showed a Ki of 0.659 nM. Binder Ac-CEH[d2Nal]R[Bta]ACPPKD[βAla]RRRRRRQRRR-NH2 (disulfide 1-8) has a Ki of 0.781 nM. For B2, the Ki was 0.573 nM. B3 was tested, and the Ki was 0.425 nM.

The binders below were run against T2, human melanocortin receptor subtype 5 (hMC5-R) (human, UniProt P33032 1-325) (assay: [125I]-NDP-α-MSH competition, membranes).
T2 construct: whole, on cells; membranes of CHO-K1 cells
T2 sequence (P33032 whole entry): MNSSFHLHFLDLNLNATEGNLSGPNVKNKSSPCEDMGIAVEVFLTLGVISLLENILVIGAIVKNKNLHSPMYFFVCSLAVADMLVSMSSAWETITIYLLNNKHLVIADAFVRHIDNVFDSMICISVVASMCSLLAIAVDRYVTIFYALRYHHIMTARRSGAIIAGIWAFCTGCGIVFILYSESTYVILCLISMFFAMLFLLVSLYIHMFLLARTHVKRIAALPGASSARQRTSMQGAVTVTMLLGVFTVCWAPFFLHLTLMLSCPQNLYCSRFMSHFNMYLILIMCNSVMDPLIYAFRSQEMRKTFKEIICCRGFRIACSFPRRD
With B1 the Ki was 78 nM. Ac-CEH[d2Nal]R[Bta]ACPPKD[βAla]RRRRRRQRRR-NH2 (disulfide 1-8) showed a Ki of 84 nM. With B2 the Ki was 15.7 nM. Work on B3 yielded a Ki of 15.5 nM.

These binders were tested against T3, human melanocortin receptor subtype 3 (hMC3-R) (human, UniProt P41968 1-323) (assay: [125I]-NDP-α-MSH competition, membranes).
T3 construct: whole, on cells; membranes of CHO-K1 cells
T3 sequence (P41968 whole entry): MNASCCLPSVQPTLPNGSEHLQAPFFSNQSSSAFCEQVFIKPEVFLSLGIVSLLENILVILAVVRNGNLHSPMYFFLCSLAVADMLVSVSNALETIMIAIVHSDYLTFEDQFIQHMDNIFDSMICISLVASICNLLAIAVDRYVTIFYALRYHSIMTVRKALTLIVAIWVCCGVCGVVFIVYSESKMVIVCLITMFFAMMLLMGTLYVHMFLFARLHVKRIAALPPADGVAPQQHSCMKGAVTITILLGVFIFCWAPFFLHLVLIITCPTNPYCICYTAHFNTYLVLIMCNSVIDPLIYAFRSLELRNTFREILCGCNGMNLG
For B1, the Ki was 11 nM. With Ac-CEH[d2Nal]R[Bta]ACPPKD[βAla]RRRRRRQRRR-NH2 (disulfide 1-8) the Ki was 14.3 nM. B2 was tested, and the Ki was 1.59 nM. With B3 the Ki was 2.15 nM.

The binders below were run against T4, human melanocortin receptor subtype 1 (hMC1-R) (human, UniProt Q01726 1-317) (assay: [125I]-NDP-α-MSH competition, membranes).
T4 construct: whole, on cells; membranes of CHO-K1 cells
T4 sequence (Q01726 whole entry): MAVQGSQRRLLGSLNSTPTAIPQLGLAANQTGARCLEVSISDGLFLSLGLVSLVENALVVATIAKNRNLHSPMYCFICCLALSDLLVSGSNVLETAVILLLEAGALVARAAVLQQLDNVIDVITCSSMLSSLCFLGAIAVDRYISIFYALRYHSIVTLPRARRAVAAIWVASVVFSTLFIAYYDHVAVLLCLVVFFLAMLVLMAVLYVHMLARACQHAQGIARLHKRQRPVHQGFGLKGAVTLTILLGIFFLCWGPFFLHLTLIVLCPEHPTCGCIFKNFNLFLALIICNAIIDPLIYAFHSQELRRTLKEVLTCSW
B1 showed a Ki of 7.32 nM. With Ac-CEH[d2Nal]R[Bta]ACPPKD[βAla]RRRRRRQRRR-NH2 (disulfide 1-8) the Ki was 6.77 nM. B2 showed a Ki of 2.5 nM. Binder B3 has a Ki of 4.29 nM.

— patent US20120135923A1 (IPSEN PHARMA S A S, published 2012)
